B1: Rad Ser272 peptide (peptide)
peptide: ARRQAGTRRRESLGK
notes: Rad GTPase C-terminal tail, residues 261-275 around Ser272; also called Rad S272 peptide; S272 peptide; source: synthetic peptide
B2: Rad Ser25 peptide (peptide)
peptide: GAGRERDRRRGSTPW
notes: Rad GTPase N-terminal tail, residues 14-28 around Ser25; also called Rad S25 peptide; source: synthetic peptide
B3: CaV1.2 Ser1981 peptide (peptide)
peptide: RGFLRSASLGRRASFHL
notes: human CaV1.2 (α1c subunit) C-terminal tail, residues 1968-1984 around the PKA site Ser1981; also called S1981 peptide; CaV1.2 S1981 peptide; source: synthetic peptide
B4: CaV1.2 Ser1981 peptide F1982A (peptide)
peptide: RGFLRSASLGRRASAHL
notes: human CaV1.2 residues 1968-1984 with F1982A (P+1 position); also called F1982A peptide; S1981 (F1982A); source: synthetic peptide
B5: CaV1.2 Ser1981 peptide S1975R (peptide)
peptide: RGFLRSARLGRRASFHL
notes: also called S1975R peptide; S1981 (S1975R); source: synthetic peptide
B6: CaV1.2 Ser1981 peptide L1971A (peptide)
peptide: RGFARSASLGRRASFHL
notes: also called L1971A peptide; S1981 (L1971A); source: synthetic peptide

Each binder was assayed against catalytic subunit of PKA, isoform alpha, residues 16-351 (PKAcα_(16-351)), preparation for ITC (mouse, UniProt P05132-1 16-351) (assay: ITC; peptide or substrate (1.25 to 4.3 mM) titrated into the cell containing PKAc (149 to 204 μM); 4 °C; 50 mM Hepes (pH 7.4), 150 mM KCl, 5 mM MgCl2, 2 mM TCEP; 0.5 mM AMP-PNP in both solutions). Conditions: both partners purified.

Q: Which results are given for B1?
A: Kd: 126 µM; dH: -4.06 kcal/mol; stoichiometry N: 0.98

Q: Which results are given for B2?
A: Kd: 460 µM; dH: -2.61 kcal/mol; stoichiometry N: 0.83

Q: Which Kd does the source give for B3 here?
A: The Kd was 34 µM.

Q: And the dH?
A: The dH was 3.11 kcal/mol.

Q: What about the “stoichiometry N” value of the same binder?
A: Its value is 0.98.

Q: How did the Kd turn out when B4 was run?
A: The Kd was 147 µM.

Q: And the dH?
A: The dH was 2.46 kcal/mol.

Q: And the “stoichiometry N” value?
A: Its value is 0.99.

Q: What does the source list for B5?
A: Kd: 532 µM; dH: 3.35 kcal/mol; stoichiometry N: 1.08

Q: How did the Kd turn out when B6 was run?
A: The Kd was 18 µM.

Q: What about the dH of the same binder?
A: The dH was 2.63 kcal/mol.

Q: What about the “stoichiometry N” value of the same binder?
A: The value was 1.06.
